Assay results as given in patent publication US20080014204A1 (CRUCELL HOLLAND B V, published 2008).
Where “and” joins values, the source holds several entries; their conditions need not be identical. Equal entries are not always repeated.

Biological target: S318-510 fragment (amino acids 318-510 of the S protein of SARS-CoV strain Frankfurt 1) (SARS-CoV strain Frankfurt 1, UniProt P59594 318-510)

B1: CR03-014 (antibody, V domains shown)
VH: EVQLVESGGGLVQPGGSLRLSCAASGFTFSDHYMDWVRQAPGKGLEWVGRTRNKANSYTTEYAASVKGRFTISRDDSKNSLYLQMNSLKTEDTAVYYCARGISPFYFDYWGQGTLVTVSS
VL: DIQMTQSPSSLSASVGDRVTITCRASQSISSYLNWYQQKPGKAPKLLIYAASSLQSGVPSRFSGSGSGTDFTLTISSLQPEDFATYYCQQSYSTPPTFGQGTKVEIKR
Kd: 0.0163 µM and 0.0148 µM
